For the data set, the target named is T1, Pho7-DBD (279-339) (Schizosaccharomyces pombe, UniProt O13658 279-339).
T1 sequence: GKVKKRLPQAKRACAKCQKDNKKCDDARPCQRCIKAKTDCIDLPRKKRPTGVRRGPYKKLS
Nature of the data set: crystal structure.

One molecule from publication PMC6265462 can be followed below.

B1: tgp1 crystal duplex (dsDNA)
DNA 1: TCCTTCGGACATTCAAATCA
DNA 2: GATTTGAATGTCCGAAGGAT
Turning to B1, the binding result is recorded as “binds”.
